Assay results published in patent US7375080B1, “Immobilized lactoferrin (Im-LF) antimicrobial agents and uses thereof” (priority 1999, dated 2008).
Values joined by “and” are separate entries in the source; they are usually repeats but may differ in a detail not shown here. Equal entries are not always repeated.

Legend:
[1] = system: E. coli serotype O157:H7 (strain ATCC43895); assay type: cell-based
[2] = system: E. coli O157:H7 strain ATCC43895; experiment: Microbial adhesion assay: detachment of 3H-thymidine labeled bacteria from beef tissue by wash; assay type: cell-based

B1: lactoferrin (protein, UniProt P24627 20-708, looked up)
Lactotransferrin: APRKNVRWCTISQPEWFKCRRWQWRMKKLGAPSITCVRRAFALECIRAIAEKKADAVTLDGGMVFEAGRDPYKLRPVAAEIYGTKESPQTHYYAVAVVKKGSNFQLDQLQGRKSCHTGLGRSAGWIIPMGILRPYLSWTESLEPLQGAVAKFFSASCVPCIDRQAYPNLCQLCKGEGENQCACSSREPYFGYSGAFKCLQDGAGDVAFVKETTVFENLPEKADRDQYELLCLNNSRAPVDAFKECHLAQVPSHAVVARSVDGKEDLIWKLLSKAQEKFGKNKSRSFQLFGSPPGQRDLLFKDSALGFLRIPSKVDSALYLGSRYLTTLKNLRETAEEVKARYTRVVWCAVGPEEQKKCQQWSQQSGQNVTCATASTTDDCIVLVLKGEADALNLDGGYIYTAGKCGLVPVLAENRKSSKHSSLDCVLRPTEGYLAVAVVKKANEGLTWNSLKDKKSCHTAVDRTAGWNIPMGLIVNQTGSCAFDEFFSQSCAPGADPKSRLCALCAGDDQGLDKCVPNSKEKYYGYTGAFRCLAEDVGDVAFVKNDTVWENTNGESTADWAKNLNREDFRLLCLDGTRKPVTEAQSCHLAVAPNHAVVSRSDRAAHVKQVLLHQQALFGKNGKNCPDKFCLFKSETKNLLFNDNTECLAKLGGRPTYEEYLGTEYVTAIANLKKCSTSPLLEACAFLTR
- GROWTH (%) [1]: 36%
- effect on growth of the E. coli [1]: reduced the growth
- % BACTERIAL CELLS DETACHED IN 1-MINUTE [2]: 90% and 85% and 78%
- bacterial detachment [2]: effective bacterial detachment
